In data set [1] the test system is KG-1 cells. Kind of data set: Radioreceptor binding assay with KG-1 cells. Also on record: species or system human. Conditions: 2 ng/tube 125I-Y1-IgG tracer. The method, then: The assay system involved the use of radioactive ligands that were prepared by iodination with ^125I using chloramine T on the Y1-IgG construct or the Bolton-Hunter (CONY1) reagent. The assay tubes contained 5×10^6 KG-1 cells per 0.2 ml and a labeled tracer with varying amounts of unlabeled competitor, in PBS+0.1% BSA, pH 7.4. After one hour incubation with agitation at 4° C., the cells were thoroughly washed with cold buffer and taken for radioactivity counting.
For the radio receptor binding assay (RRA), 2 ng/tube of ^125I-Y1-IgG was used, and competition was performed with each of the three molecules. […] A rough estimate of the affinity of the Y1-IgG in this experiment is 2×10^−8 M. The corresponding affinity of the dimer is, therefore, 4×10^−8 M.
In a second RRA using labeled CONY1, a 100 ng/tube of ^125I-Y1-IgG was used, and competition was performed with each of the three molecules. […] A rough estimate of the affinity of CONY 1 in this experiment is 10^−6M. The corresponding affinity of the dimer is, therefore, 5×10^−8 M.

A short description of data set [2]: Pharmacokinetics of 125I-CONY1 after intravenous injection in mice. Format: in vivo, Balb-C mice. Conditions: 15 μg per mouse i.v.; plasma TCA-precipitable radioactivity, two-compartment model. The protocol: Two to four mice were used per time point. […] Organ/tissue total and specific radioactivity values were calculated.
For data set [3], the system named is MOLT-4 cells. Kind of data set: T-ALL (MOLT4) model in SCID mice. In kind it is in vivo. The protocol:
The in vivo mouse model for T-ALL uses SCID mice (Jackson Laboratories) injected with MOLT4 cells derived from a T cell leukemia patient.
In one experiment, SCID mice were pretreated with 100 mg/kg Cytoxan (CTX, Cyclophosphamid for injection, Mead Johnson). Eleven days after CTX injection, MOLT-4 cells were injected intravenously into the tail vein. Control mice were injected with PBS alone. One week post-MOLT-4 injection mice were injected with CONY1-Doxorubicin, which is a conjugate between scFv CON Y1 polypeptide, having KAK amino acid residues at its carboxy end and doxorubicin via a short organic linker; CONY1, which is a scFv antibody fragment derived from Y1 scFv in which the DNA sequences encoding the myc tag of Y1 were deleted and replaced with a DNA sequence encoding the amino acids lysine, alanine, lysine (KAK); or free Doxorubicin. The mice were injected three times per week for three weeks. […] (Table M).
Mice started to die 32 days post cell inoculation, and the surviving mice were sacrificed at this time. Bone marrow cells were analyzed by flow cytometry using anti-human CD44-FITC and Y1-Biotin/SAV-PE. Blood samples from several animals were monitored for platelet and white blood cell count. Livers were weighted and examined for tumor appearance. Other organs were also examined for tumor appearance.
In a second experiment, SCID mice were i.v. injected with 2×10^7 MOLT-4 cells/mouse, 5 days post treatment with cyclophosphamide. Anti-cancer agents or PBS (negative control animals) were injected i.v. three times/week from day 5 post MOLT-4 cells injection and onward. On day 35, blood was drawn from the animals, the animals were sacrificed, and their livers were excised and weighed. In the untreated, PBS-treated MOLT-4 cell-bearing animals, the liver presented with a very massive tumor growth, and its size was increased 2-3-fold relative to PBS control uninfected animals. In this experiment, there were five treatment groups:
In parallel, portions of liver tissue were taken for histology and cell harvesting for FACS analysis. The survival rate of another group of treated animals was recorded relative to that of control untreated mice.
In a third experiment, using the identical SCID/MOLT-4 protocol, there were 6 groups: […]

Data set [4] has as its target T1, GPIb (glycocalicin) derived from platelets (Homo sapiens, UniProt P07359).
T1 construct: glycocalicin (soluble, extracellular fragment of GPIbα); from tissue; host or cells: human platelets
The experiment in a line: ELISA of monomer and dimer to GPIb (glycocalicin). Format: binding. The protocol: An ELISA assay was performed to ascertain the differences in binding between the monomer (the Y1 scFv-also known as Y1-kak) and the dimer Y1-cys-kak (the cysteine dimer) for antigen GPIb (glycocalicin) derived from platelets. A polyclonal anti single chain antibody and/or a novel polyclonal anti-VL (derived from rabbits) and anti-rabbit HRP, were used to detect the binding to GPIb. […] For instance, to reach 0.8 OD units 12.8 μg/ml of monomer was used compared to only 0.1 μg/ml of dimer.
100 ml of purified glycocalicin was incubated in a 96 flat well maxisorp plates, overnight at 4 degrees celsius. The plate was washed with PBST (PBS+0.05% tween) 3 times, then […] of PBST-milk (PBST+2% Non fat milk), for 1 hr at room temperature. The plate was washed with PBST, and the monomer or dimer (100 ml) was added in PBST-milk at different concentrations for 1 hr at room temp. Then the plate was washed and anti-VL polyclonal (derived from immunized rabbits with VL derived from Y1) (1:100 diluted in PBST-milk) was added for an hour. The plate was washed and anti-rabbit HRP was added for an additional hour. The plate was washed 5 times and 100 μl TMB substrate was added for approximately 15 minutes then 100 μl of 0.5 H2SO4 was added to stop the reaction. The optical density of the plate was measured at 450 nm in an ELISA reader.
In general terms: An ELISA detects its analyte on a solid surface through an enzyme-linked reagent.

The subject of data set [5] is KG-1 cells. Kind of data set: AML KG-1 model in NOD/SCID mice. In kind it is in vivo. The protocol:
The in vivo mouse model for human AML uses SCID/NOD mice (Jackson Laboratories) inoculated with KG-1 cells derived from a human AML cell line.
In a first experiment, NOD/SCID mice were pretreated with 100 mg/kg CYTOXAN®. Four days post CYTOXAN® injection, KG-1 cells were injected intravenously into the tail vein of six groups of mice. (Table N, Groups 2 and 5-9). One group of mice (Table N, Group 1) was injected with PBS alone (control). [273.][273.]
Beginning 19 days post KG-1 injection mice were treated with: CONY1, Doxorubicin, CONY1-Doxorubicin conjugate, or Mylotarg®. (Mylotarg® is a monoclonal antibody (anti CD33) conjugated chemically to calcheamicin recently approved by the FDA for treatment of AML patients age 60 and over in a first relapse.) Mice were treated once or three times per week for three weeks. […]
Mice were sacrificed from 60 to 65 days post cell injection. Bone marrow and blood samples were analyzed by flow cytometry using mouse anti human CD34-FITC (IQP 144F) (or anti CD44-FITC (MCA89F, Serotec)) and Y1-Biotin/SAV-PE. […]
An additional experiment was performed in which SCID-NOD mice were i.v. injected with 3×10^4 MOLT-4 cells/mouse 5 days post treatment with cyclophosphamide. […] Bone marrow was extracted and analyzed by FACS analysis using a commercially available antiCD44 antibody for the detection of MOLT-4 cells in the mice bone marrow cell population.

The source of these data is patent US20040001839A1, “Multimers - isolated molecules comprising epitopes containing sulfated moieties, antibodies to such epitopes, and uses thereof” (priority 2000, published 2004).

B1: S-S Y1 dimer: disulfide bridge dimer of Y1 scFv compared with CONY1 and Y1-IgG in Example 12 (protein)
scFv 1: MEVQLVESGGGVVRPGGSLRLSCAASGFTFDDYGMSWVRQAPGKGLEWVSGINWNGGSTGYADSVKGRFTISRDNAKNSLYLQMNSLRAEDTAVYYCARMRAPVIWGQGTLVTVSRGGGGSGGGGSGGGGSSELTQDPAVSVALGQTVRITCQGDSLRSYYASWYQQKPGQAPVLVIYGKNNRPSGIPDRFSGSSSGNTASLTITGAQAEDEADYYCNSRDSSGNHVVFGGGTKLTVLGGGGCKAK
scFv 2: B1 scFv 1
Take B1: the “affinity relative to the full Y1 antibody” value in data set [1] is recorded as “twofold lower”.

B2: CONY1: scFv derived from Y1 scFv, myc tag replaced by lysine, alanine, lysine (KAK); SEQ ID NO:204 (protein, listed as Homo sapiens)
scFv: MKYLLPTAAAGLLLLAAQPAMAEVQLVESGGGVVRPGGSLRLSCAASGFTFDDYGMSWVRQAPGKGLEWVSGINWNGGSTGYADSVKGRFTISRDNAKNSLYLQMNSLRAEDTAVYYCARMRAPVIWGQGTLVTVSRGGGGSGGGGSGGGGSSELTQDPAVSVALGQTVRITCQGDSLRSYYASWYQQKPGQAPVLVIYGKNNRPSGIPDRFSGSSSGNTASLTITGAQAEDEADYYCNSRDSSGNHVVFGGGTKLTVLGAAAKAK
On to B2, for which, in data set [2], the “half-life of blood clearance, second compartment” value was 3.17 h. For the same molecule, the “liver weight versus mice treated with free Doxorubicin or left untreated” value in data set [3] (first experiment, 3 times per week for three weeks, sacrificed 32 days post cell inoculation) is recorded as “weighted significantly less”. Further, the “tumor growth in the liver (liver weights, day 35)” value in data set [3] (second experiment, 75 μg/mouse i.v. three times/week from day 5) is “markedly inhibited tumor growth in the liver”. For the same molecule, the “tumor growth (based on liver weights)” value in data set [3] (third experiment, 75 μg/mouse) is “inhibited tumor growth”. Further, the survival entry in data set [3] (three groups with continued treatment) is “prolonged”. In addition, the “concentration used to reach 0.8 OD units” value in data set [4] came out at 12.8 µg/mL. In data set [5] (KG-1 cells incubated in vitro with scFv (0.25 mg/10^8 cells) before injection (groups 3 and 4)), the “percentage of KG-1 cells in bone marrow” value is recorded as “significantly lower percentage of KG-1 cells”. Also, the “development of the malignancy (cancer cells in bone marrow, day 60)” value in data set [5] (additional experiment, 75 μg/mouse i.v. three times/week from day 14) is “no effect”.
